In test [1] the target is T1, Lysine 164 monoubiquitinated human PCNA (PCNA^ub) (human | , UniProt P12004 1-261; P0CG48 1-76, monoubiquitinated at lysine 164 | C-terminus joined to lysine 164 of PCNA).
T1 construct: PCNA (proliferating cell nuclear antigen), human, carrying one ubiquitin on lysine 164; ubiquitin, conjugated in vitro to lysine 164 of PCNA; also called ubiquitinated PCNA; lysine-164 monoubiquitinated PCNA
Put plainly: pull-down; GST-SNM1A peptides held on glutathione-agarose beads, washed with PBS with 250 mM to 1 M salt; 150 ng purified PCNA or PCNA^ub added, tumbled at 4 °C for 1 h, washed as before; immunoblot for PCNA, PCNA^ub, GST. Particulars: both partners purified. (In general: In western blotting, separated proteins are transferred to a membrane and probed.)

The target of the next test is T2, Human PCNA (human, UniProt P12004 1-261).
T2 construct: PCNA (proliferating cell nuclear antigen), human; also called native PCNA; purified PCNA; source: E. coli BL21, purified (IMAC, gel filtration on Superdex 200)
T2 sequence (P12004 whole entry): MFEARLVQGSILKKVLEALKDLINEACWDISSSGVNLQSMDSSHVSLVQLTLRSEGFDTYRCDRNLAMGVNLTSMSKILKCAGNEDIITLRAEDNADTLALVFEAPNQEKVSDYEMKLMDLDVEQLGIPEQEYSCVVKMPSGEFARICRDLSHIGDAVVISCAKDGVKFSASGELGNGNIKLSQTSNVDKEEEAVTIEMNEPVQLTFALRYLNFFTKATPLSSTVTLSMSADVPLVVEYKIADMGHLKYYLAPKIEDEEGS
The test is described as above. The conditions noted are these: both partners purified.

B1: GST-tagged SNM1A peptide spanning the PBZ and UBZ motifs (GST-PBZ-UBZ) (domain or fragment, human)
chain: RPVYDGYCPNCQMPFSSLIGQTPRWHVFECLDSPPRSETECPDGLLCTSTIPFHYKRYTHFLLAQSRAG
notes: SNM1A (DCLRE1A), human, stretch spanning the UBZ and PBZ motifs; numbering as for NP_001258745.1; Cloned into pET-41b; also called UBZ/PBZ peptide; PBZ-plus-UBZ; not shown: GST, N-terminal, kept
With B1, the binding result in test [1] is reported as “binds”.

B2: GST-tagged SNM1A PIP box peptide (GST-PIP) (domain or fragment, human)
chain: ARHPSTKVMKQMDIGVYFGLPPKRKEEKLL
notes: SNM1A (DCLRE1A), human, stretch spanning the PIP box; numbering as for NP_001258745.1; Cloned into pET-41b (MfeI/SalI); also called wildtype PIP box peptide; not shown: GST, N-terminal, kept
With B2, the binding result (with Human PCNA; in test [1]) was “binds” each time.

Source of the values: publication PMC11199599, “SNM1A is crucial for efficient repair of complex DNA breaks in human cells” (Nature Communications, 2024).
